Source: patent US20100286365

Experiments:
[1] = system: GLP-1(7-37)-GG-(S)-2,6-diamino-1-(thiazolidin-3-yl)hexan-1-one amide
[2] = system: GLP-1(7-37)-GG-(S)-2,6-diamino-1-(thiazolidin-2-cyano-3-yl)hexan-1-one amide
Chain of GLP-1(7-37)-GG-(S)-2,6-diamino-1-(thiazolidin-2-cyano-3-yl)hexan-1-one amide (chain, as listed by the source): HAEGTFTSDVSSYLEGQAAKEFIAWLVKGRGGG

Chain of GLP-1 (chain, as listed by the source): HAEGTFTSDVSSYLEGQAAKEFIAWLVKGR

Recombinant DPP-IV
hydrolysis catalyzed by DPP-IV (mass spectrometry) [1]: the expected product ions were not observed, indicating that these two compounds are DPP-IV resistant under the test conditions | hydrolysis catalyzed by DPP-IV (mass spectrometry) [2]: the expected product ions were not observed, indicating that these two compounds are DPP-IV resistant under the test conditions | percentage of hydrolysis catalyzed by DPP-IV (mass spectrometry) (GLP-1): the DPP-IV catalyzed cleavage afforded the GLP-1 (9-36) product in 17% yield
